# Results as given in patent US20220267464A1.
# B1: P1AE3125 (antibody, IgG1, V domains shown)
# VH: QVQLVQSGAEVKKPGASVKVSCKASGFNIKDSYMHWVRQAPGQGLEWMGWIDPENGDTEYAPKFQGRVTMTTDTSISTAYMELSRLRSDDTAVYYCNEGTPTGPYYFDYWGQGTLVTVSS
# VL: DIQMTQSPSSLSASVGDRVTITCRASSSVSYMHWYQQKPGKAPKLLIYSTSNLASGVPSRFSGSGSGTDFTLTISSLQPEDFATYYCQQRSSYPLTFGGGTKLEIK
# Target: human CEACAM5 (carcinoembryonic antigen, CEA) on cells (human) (UniProt P06731)
# Test: flow cytometry, MKN45 cells
# Parameters: unit not given beside the values
# Sequence of human CEACAM5 (carcinoembryonic antigen, CEA) on cells (human) (P06731 35-685 E398K limits assumed): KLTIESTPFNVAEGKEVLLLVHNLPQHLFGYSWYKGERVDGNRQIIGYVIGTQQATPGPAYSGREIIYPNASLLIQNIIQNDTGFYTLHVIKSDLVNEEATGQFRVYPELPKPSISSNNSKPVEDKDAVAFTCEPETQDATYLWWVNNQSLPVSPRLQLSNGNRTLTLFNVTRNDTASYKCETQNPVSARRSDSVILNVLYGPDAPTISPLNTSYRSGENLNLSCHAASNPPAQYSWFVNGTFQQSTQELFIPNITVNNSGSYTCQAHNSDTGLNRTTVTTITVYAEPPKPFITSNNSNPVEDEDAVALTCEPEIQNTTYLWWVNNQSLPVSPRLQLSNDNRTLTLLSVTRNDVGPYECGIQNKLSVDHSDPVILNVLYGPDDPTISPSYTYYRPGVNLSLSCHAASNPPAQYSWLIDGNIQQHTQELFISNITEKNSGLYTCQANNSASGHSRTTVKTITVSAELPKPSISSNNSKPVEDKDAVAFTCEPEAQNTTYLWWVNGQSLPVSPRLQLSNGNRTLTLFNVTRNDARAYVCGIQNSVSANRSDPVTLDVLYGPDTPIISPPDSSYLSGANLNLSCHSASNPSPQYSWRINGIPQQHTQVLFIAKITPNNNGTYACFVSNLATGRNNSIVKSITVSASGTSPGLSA
binder,measurement,value
B1,AUC,3140
